Measured values taken from patent US20240010735A1 (EISAI R AND D MANAGEMENT, published 2024).

What was measured:
Assay in all cases: ELISA: Fc-His proteins (1 nM) captured on anti-6-His antibody, antibody B 10 µg/mL with human IgG 100 µg/mL, HRP anti-human kappa light chain antibody, OD450 as % of mouse EphA4-Fc-His
[1] = biological target: T1, mouse EphA1 extracellular region-Fc-His protein (mouse; human, UniProt Q60750 27-548)
T1 construct: extracellular domain; not shown: Fc region of human IgG1; histidine tag
T1 sequence (looked up): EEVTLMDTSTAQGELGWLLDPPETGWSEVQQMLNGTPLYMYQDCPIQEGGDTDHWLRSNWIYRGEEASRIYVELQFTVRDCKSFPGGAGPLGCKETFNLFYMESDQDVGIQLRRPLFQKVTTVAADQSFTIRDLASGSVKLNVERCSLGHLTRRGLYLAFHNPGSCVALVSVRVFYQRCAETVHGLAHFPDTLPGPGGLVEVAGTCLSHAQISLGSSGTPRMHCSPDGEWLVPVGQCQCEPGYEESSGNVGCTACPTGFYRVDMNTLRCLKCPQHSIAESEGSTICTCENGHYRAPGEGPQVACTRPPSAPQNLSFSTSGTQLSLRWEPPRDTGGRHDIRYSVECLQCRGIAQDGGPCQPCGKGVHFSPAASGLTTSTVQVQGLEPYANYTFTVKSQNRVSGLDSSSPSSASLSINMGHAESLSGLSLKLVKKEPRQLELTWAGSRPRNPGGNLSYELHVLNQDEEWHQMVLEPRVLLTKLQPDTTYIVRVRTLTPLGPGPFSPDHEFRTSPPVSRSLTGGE
Description: (§1) Rabbit anti-6-His antibodies (Bethyl Laboratories) were coated onto the wells of a 96-well plate (Nunc). After incubating at 4° C. overnight, the wells were blocked at room temperature for 1 hour by 1% Block Ace (DS Pharma Biomedical). After washing 3 times with 0.05% Tween 20/PBS (Thermo […]), each Eph receptor of mouse extracellular region-Fc-His protein (final concentration 1 nM) was seeded into each well, and incubated at room temperature for 1 hour. After washing 3 times, human IgG solution (100 μg/mL, Sigma) and antibody B (10 μg/mL) were supplemented to the wells, and incubated at room temperature for 1 hour. Horseradish peroxidase-labeled goat anti-human Kappa Light Chain antibody (IBL) was added, and incubated at room temperature for 1 hour. After washing 3 times, TMBZ (3,3′,5,5′-tetramethylbenzidine, Sigma) solution was added to the wells, and upon confirmation of modest coloring, an equal amount of quenching solution (1 N H₂SO₄, Wako Pure Chemicals) was added to the wells, and absorbance at 450 nm was read by a microplate reader (PerkinElmer).

[2] = biological target: T2, mouse EphB4 extracellular region-Fc-His protein (mouse; human, UniProt P54761 16-539)
T2 construct: extracellular domain; not shown: Fc region of human IgG1; histidine tag
T2 sequence (looked up): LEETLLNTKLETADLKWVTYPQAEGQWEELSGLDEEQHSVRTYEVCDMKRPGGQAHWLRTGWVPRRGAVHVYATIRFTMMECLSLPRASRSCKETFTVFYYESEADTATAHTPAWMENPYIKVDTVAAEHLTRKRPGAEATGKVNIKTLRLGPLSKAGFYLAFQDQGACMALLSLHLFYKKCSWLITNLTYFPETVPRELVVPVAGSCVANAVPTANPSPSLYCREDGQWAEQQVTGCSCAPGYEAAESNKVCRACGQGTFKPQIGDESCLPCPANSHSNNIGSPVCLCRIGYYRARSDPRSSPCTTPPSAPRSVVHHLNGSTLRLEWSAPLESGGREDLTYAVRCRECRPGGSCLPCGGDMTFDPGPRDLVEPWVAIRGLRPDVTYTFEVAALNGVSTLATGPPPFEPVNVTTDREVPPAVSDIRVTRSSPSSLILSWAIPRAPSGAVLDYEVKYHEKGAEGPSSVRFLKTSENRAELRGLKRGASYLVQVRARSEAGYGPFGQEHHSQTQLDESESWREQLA
Description: as §1

[3] = biological target: T3, mouse EphA8 extracellular region-Fc-His protein (mouse; human, UniProt O09127 27-541)
T3 construct: extracellular domain; not shown: Fc region of human IgG1; histidine tag
T3 sequence (looked up): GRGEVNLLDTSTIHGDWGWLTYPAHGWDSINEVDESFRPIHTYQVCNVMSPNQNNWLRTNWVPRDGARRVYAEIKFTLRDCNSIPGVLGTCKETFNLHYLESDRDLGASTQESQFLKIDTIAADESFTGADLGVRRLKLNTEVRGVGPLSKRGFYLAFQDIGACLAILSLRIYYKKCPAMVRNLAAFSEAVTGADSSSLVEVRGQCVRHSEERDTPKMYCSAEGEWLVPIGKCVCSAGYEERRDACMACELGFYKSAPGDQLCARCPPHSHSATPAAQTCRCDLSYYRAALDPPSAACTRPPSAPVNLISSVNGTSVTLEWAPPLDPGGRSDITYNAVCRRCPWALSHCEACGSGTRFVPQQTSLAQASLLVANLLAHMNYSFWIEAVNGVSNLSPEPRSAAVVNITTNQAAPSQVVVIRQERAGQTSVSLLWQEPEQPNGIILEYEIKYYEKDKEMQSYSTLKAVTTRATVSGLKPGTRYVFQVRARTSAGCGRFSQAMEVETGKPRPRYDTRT
Description: as §1

Measured: binding result

B1: humanized anti-EphA4 monoclonal antibody (antibody B) (antibody, human IgG2, V domains shown)
VH: QVQLVESGGGVVQPGRSLRLSCAVSGFSLTRFGVHWVRQAPGKGLEWVAVIWRGGSTDYNAAFMSRLTISKDNSKNTVYLQMNSLRAEDTAVYYCAKESLFGVYYDYGYYSMDYWGQGTTVTVSS
VL: DIQMTQSPSSLSASVGDRVTITCRASQEISGYLSWLQQKPGKAPKRLIYAASTLDSGVPSRFSGSRSGTEYTLTISSLQPEDFATYYCLQYASYPLTFGGGTKVEIKR
notes: expressed in Expi293F cells; also called humanized antibody of antibody A; HK2-42 / L1-8
no binding (tested: 10 µg/mL): all assays above
